{
  "source": "paper PMC6752053",
  "about": "(Cell, 2019)",
  "proteins": {"B1": {"name": "His6-Pbp1_LC (C-terminal low-complexity region of Pbp1, a.a.570-722) (domain or fragment, S. cerevisiae, UniProt P53297 570-722, looked up)", "chain": "NSMGNAVPGMNPAMGMNMGGMMGFPMGGPSASPNPMMNGFAAGSMGMYMPFQPQPMFYHPSMPQMMPVMGSNGAEEGGGNISPHVPAGFMAAGPGAPMGAFGYPGGIPFQGMMGSGPSGMPANGSAMHSHGHSRNYHQTSHHGHHNSSTSGHK"}},
  "molecular_target": "the molecule itself",
  "test": "X-ray diffraction of polymer pellets",
  "data": [
    {"protein": "B1", "values": [
      {"measurement": "binding result", "value": "binds"}
    ]}
  ]
}
